Test results published in PMC7954794, “Protein context shapes the specificity of SH3 domain-mediated interactions in vivo” (Nature Communications, 2021).

Test system: Abp1 PPIs
Assay: DHFR-PCA of Abp1 SH3-swapped baits (Fig. 2B-D, S2C, S2F);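 for Protein-protein interaction distance between Abp1 SH3-swapped baits, to ABP1: Euclidean distance between DHFR-PCA score profiles of the baits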;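 for Protein-protein interaction distance between Abp1 SH3-swapped baits, to BEM1-2: Euclidean distance between DHFR-PCA score profiles of the baits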;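 for Protein-protein interaction distance between Abp1 SH3-swapped baits, to BOI1: Euclidean distance between DHFR-PCA score profiles of the baits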;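 for Protein-protein interaction distance between Abp1 SH3-swapped baits, to BZZ1-1: Euclidean distance between DHFR-PCA score profiles of the baits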
Type: cell-based, Saccharomyces cerevisiae
In short: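 Yeast DHFR-PCA in which Abp1 baits, carrying their SH3 replaced by CRISPR–Cas9 with one of 27 yeast SH3s or human CTTN, HCLS1 or DBNL SH3s, were mated against 575 SH3-associated DHFR F[3] preys plus 40 negative controls. Four tests were run per PPI. Diploids were selected twice (48 h, 30 °C), then grown 4 days on PCA selection media.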

[1] = number of PPIs, difference, Abp1 SH3-swapped with the listed SH3, Fig2D,S2F

B1: LSB3 (protein)
chain: MGINNPIPRSLKSETKKAAKILASFVKPNQVFGADQVIPPDVLKRAKGLAIITILKAGFLFSGRAGSGVIVARLKDGTWSAPSAIAMAGAGAGGMVGIELTDFVFILNTQDAVKSFSEFGTITLGGNVSVSAGPLGRSAEAAASASAGGVAAVFAYSKSKGLFAGVSVEGSAIIERREANRKFYGDNCTAKMILSGRIRPPPAVDPLFRVLESRAFNYRPSNGGRGSFDDDEDDYYDDDDYYNDIPSSFSSTDASSTRPNTRSTRRRAQSGSRYTFDDDDDDDDYGTGYSRNSRLAPTNSGGSGGKLDDPSGASSYYASHRRSGTAQSRARSSRNRWADDEYDDYDDDYESGYRRGNGRDRTKDREVDDLSNRFSKSRISSASTPQTSQGRFTAPTSPSTSSPKAVALYSFAGEESGDLPFRKGDVITILKKSDSQNDWWTGRVNGREGIFPANYVELV
modifications: left off: DHFR F[3], C-terminal, kept
Protein-protein interaction distance between Abp1 SH3-swapped baits, to ABP1 (Abp1 bait with swapped SH3, distance to bait with ABP1 SH3, sheet Fig2C): 13.53 | Protein-protein interaction distance between Abp1 SH3-swapped baits, to BBC1 (distance to Abp1 bait with BBC1 SH3, sheet Fig2C): 13.63 | Protein-protein interaction distance between Abp1 SH3-swapped baits, to BEM1-1 (distance to Abp1 bait with BEM1-1 SH3, sheet Fig2C): 19.15 | Protein-protein interaction distance between Abp1 SH3-swapped baits, to BEM1-2 (distance to Abp1 bait with BEM1-2 SH3, sheet Fig2C): 36.03 | Protein-protein interaction distance between Abp1 SH3-swapped baits, to BOI1 (distance to Abp1 bait with BOI1 SH3, sheet Fig2C): 16.12 | Protein-protein interaction distance between Abp1 SH3-swapped baits, to BOI2 (distance to Abp1 bait with BOI2 SH3, sheet Fig2C): 19.6 | Protein-protein interaction distance between Abp1 SH3-swapped baits, to BUD14 (distance to Abp1 bait with BUD14 SH3, sheet Fig2C): 22.11 | Protein-protein interaction distance between Abp1 SH3-swapped baits, to BZZ1-1 (distance to Abp1 bait with BZZ1-1 SH3, sheet Fig2C): 10.79 | Protein-protein interaction distance between Abp1 SH3-swapped baits, to BZZ1-2 (distance to Abp1 bait with BZZ1-2 SH3, sheet Fig2C): 16.06 | Protein-protein interaction distance between Abp1 SH3-swapped baits, to CDC25 (distance to Abp1 bait with CDC25 SH3, sheet Fig2C): 30.47 | Protein-protein interaction distance between Abp1 SH3-swapped baits, to CTTN (distance to Abp1 bait with CTTN SH3, sheet Fig2C): 16.7 | Protein-protein interaction distance between Abp1 SH3-swapped baits, to CYK3 (distance to Abp1 bait with CYK3 SH3, sheet Fig2C): 31.13 | Protein-protein interaction distance between Abp1 SH3-swapped baits, to DBNL (distance to Abp1 bait with DBNL SH3, sheet Fig2C): 10.88 | Protein-protein interaction distance between Abp1 SH3-swapped baits, to FUS1 (distance to Abp1 bait with FUS1 SH3, sheet Fig2C): 23.48 | Protein-protein interaction distance between Abp1 SH3-swapped baits, to HCLS1 (distance to Abp1 bait with HCLS1 SH3, sheet Fig2C): 10.8 | Protein-protein interaction distance between Abp1 SH3-swapped baits, to HOF1 (distance to Abp1 bait with HOF1 SH3, sheet Fig2C): 34.67 | Protein-protein interaction distance between Abp1 SH3-swapped baits, to HSE1 (distance to Abp1 bait with HSE1 SH3, sheet Fig2C): 12.29 | Protein-protein interaction distance between Abp1 SH3-swapped baits, to LSB1 (distance to Abp1 bait with LSB1 SH3, sheet Fig2C): 3.731 | Protein-protein interaction distance between Abp1 SH3-swapped baits, to LSB3 (distance to Abp1 bait with LSB3 SH3, sheet Fig2C): 0.00 | Protein-protein interaction distance between Abp1 SH3-swapped baits, to MYO3 (distance to Abp1 bait with MYO3 SH3, sheet Fig2C): 9.625 | Protein-protein interaction distance between Abp1 SH3-swapped baits, to MYO5 (distance to Abp1 bait with MYO5 SH3, sheet Fig2C): 8.063 | Protein-protein interaction distance between Abp1 SH3-swapped baits, to NBP2 (distance to Abp1 bait with NBP2 SH3, sheet Fig2C): 21.33 | Protein-protein interaction distance between Abp1 SH3-swapped baits, to PEX13 (distance to Abp1 bait with PEX13 SH3, sheet Fig2C): 7.361 | Protein-protein interaction distance between Abp1 SH3-swapped baits, to PIN3 (distance to Abp1 bait with PIN3 SH3, sheet Fig2C): 5.817 | Protein-protein interaction distance between Abp1 SH3-swapped baits, to RVS167 (distance to Abp1 bait with RVS167 SH3, sheet Fig2C): 7.852 | Protein-protein interaction distance between Abp1 SH3-swapped baits, to SDC25 (distance to Abp1 bait with SDC25 SH3, sheet Fig2C): 36.63 | Protein-protein interaction distance between Abp1 SH3-swapped baits, to SHO1 (distance to Abp1 bait with SHO1 SH3, sheet Fig2C): 11.76 | Protein-protein interaction distance between Abp1 SH3-swapped baits, to SLA1-1 (distance to Abp1 bait with SLA1-1 SH3, sheet Fig2C): 32.92 | Protein-protein interaction distance between Abp1 SH3-swapped baits, to SLA1-2 (distance to Abp1 bait with SLA1-2 SH3, sheet Fig2C): 23.82 | Protein-protein interaction distance between Abp1 SH3-swapped baits, to SLA1-3 (distance to Abp1 bait with SLA1-3 SH3, sheet Fig2C): 5.438 | Protein-protein interaction distance between Abp1 SH3-swapped baits, to YSC84 (distance to Abp1 bait with YSC84 SH3, sheet Fig2C): 3.425 | PPIs gained by Abp1 - SH3-dependent PPIs gained by Abp1 [1]: 37 | SH3-dependent PPIs - SH3-dependent PPIs gained by Abp1 [1]: 15 | SH3-dependent PPIs gained by Abp1 (number of PPIs, Abp1 SH3-swapped with the listed SH3, DHFR-PCA, Fig2D,S2F): 4
